According to US20230143604A1, “QW DOSING OF GIP RECEPTOR AGONIST PEPTIDE COMPOUNDS AND USES THEREOF” (TAKEDA PHARMACEUTICAL COMPANY LIMITED, priority 2020, published 2023):
Starred links: 1 amine or outer side, 2 acyl side, 3 side chain; linkers in the order of their positions; H or OH if unused. Non-standard residues stand in square brackets, D forms with d. Groups on a side chain read outwards from the residue. No end group written: not given here. *: point of attachment. C20 diacid = O=C(O)CCCCCCCCCCCCCCCCCCC(=O)*; C18 diacid = O=C(O)CCCCCCCCCCCCCCCCC(=O)*; C17 diacid = O=C(O)CCCCCCCCCCCCCCCC(=O)*; γGlu = O=C(O)[C@H](CCC(=O)[*:2])N[*:1]; NMeY = CN[C@@H](Cc1ccc(O)cc1)C(=O)O; AEEA = NCCOCCOCC(=O)O; Aib = CC(C)(N)C(=O)O

Tests used:
[1] = biological target: full-length human GLP-1R with an N-terminal FLAG tag (human, UniProt P43220 24-463); assay: cell-based or functional assay
[2] = biological target: T1, full-length human GIPR with an N-terminal FLAG tag (human, UniProt P48546 22-466); assay: cell-based or functional assay
T1 sequence (looked up): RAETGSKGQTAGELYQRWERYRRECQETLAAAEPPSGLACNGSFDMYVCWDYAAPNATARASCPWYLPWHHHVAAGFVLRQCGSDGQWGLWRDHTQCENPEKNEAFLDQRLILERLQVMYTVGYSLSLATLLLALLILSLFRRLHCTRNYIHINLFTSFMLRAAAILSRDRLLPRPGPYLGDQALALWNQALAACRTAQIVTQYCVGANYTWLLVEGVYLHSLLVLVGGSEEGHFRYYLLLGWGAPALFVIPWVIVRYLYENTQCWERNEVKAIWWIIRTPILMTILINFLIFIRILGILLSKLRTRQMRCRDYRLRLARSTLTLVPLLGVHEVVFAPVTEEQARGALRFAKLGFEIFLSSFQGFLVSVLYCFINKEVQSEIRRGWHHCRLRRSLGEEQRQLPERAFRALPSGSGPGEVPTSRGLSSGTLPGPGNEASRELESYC

| Binder | Human GLP1R cAMP EC50, HEK293T [1] [nM] | Human GIPR cAMP EC50, HEK293T [2] [nM] |
| --- | --- | --- |
| [NMeY][Aib]EGTFISDYSI[Aib]LDR[Aib]AA[Aib]K([AEEA-AEEA-γGlu-γGlu-C18 diacid])FVNWLLAQSPSSGAPPPS-NH2 [Compound No. 107] | 45.7 | 0.0004 |
| [NMeY][Aib]EGTFISDYSIAK([GGPAPAP-C18 diacid])DR[Aib]AQ[Aib]DFVNWLLAQSPSSGAPPPS-OH [Compound No. 105] | 562 | 0.0005 |
| [NMeY][Aib]EGTFISDYSIALDR[Aib]K([AEEA-AEEA-γGlu-γGlu-C20 diacid])Q[Aib]NFVNWLLAQSPSSGAPPPS-NH2 [Compound No. 99] | 479 | 0.0005 |
| [NMeY][Aib]EGTFISDYSIAK([AEEA-AEEA-γGlu-C17 diacid])DR[Aib]AQ[Aib]NFVNWLLAQS-OH (N-terminus assumed; SMILES CC[C@H](C)[C@H](NC(=O)[C@H](CO)NC(=O)[C@H](Cc1ccc(O)cc1)NC(=O)[C@H](CC(=O)O)NC(=O)[C@H](CO)NC(=O)[C@@H](NC(=O)[C@H](Cc1ccccc1)NC(=O)[C@@H](NC(=O)CNC(=O)[C@H](CCC(=O)O)NC(=O)C(C)(C)NC(=O)[C@H](Cc1ccc(O)cc1)NC)[C@@H](C)O)[C@@H](C)CC)C(=O)N[C@@H](C)C(=O)N[C@@H](CCCCNC(=O)COCCOCCNC(=O)COCCOCCNC(=O)CC[C@H](NC(=O)CCCCCCCCCCCCCCCC(=O)O)C(=O)O)C(=O)N[C@@H](CC(=O)O)C(=O)N[C@@H](CCCNC(=N)N)C(=O)NC(C)(C)C(=O)N[C@@H](C)C(=O)N[C@@H](CCC(N)=O)C(=O)NC(C)(C)C(=O)N[C@@H](CC(N)=O)C(=O)N[C@@H](Cc1ccccc1)C(=O)N[C@H](C(=O)N[C@@H](CC(N)=O)C(=O)N[C@@H](Cc1c[nH]c2ccccc12)C(=O)N[C@@H](CC(C)C)C(=O)N[C@@H](CC(C)C)C(=O)N[C@@H](C)C(=O)N[C@@H](CCC(N)=O)C(=O)N[C@@H](CO)C(=O)O)C(C)C) [Compound No. 10] | 37.2 | 0.0002 |
| YXEGTFISDYSIAXDRXAQXDFVNWLLAQSPG (N-methyl Tyr 1; Aib at 2,17,20; Lys(G5-C20 diacid) at 14; C-terminal OH) [Compound No. 111] | 14.1 | 0.0001 |
| YXEGTFISDYSIALDRXAQXDFVNWLLAQSPG (N-methyl Tyr 1; Aib at 2,20; Lys(G5-C18 diacid) at 17; C-terminal OH) [Compound No. 113] | 13.5 | 0.0003 |
| YXEGTFISDYSIAXDRXAQXNFVNWLLAQSPG (N-methyl Tyr 1; Aib at 2,17,20; Lys(G5-C18 diacid) at 14; C-terminal OH) [Compound No. 114] | 11.7 | 0.0001 |
| [NMeY][Aib]EGTFISDYSI[Aib]LDR[Aib]AQ[Aib]K([AEEA-γGlu-γGlu-C18 diacid])FVNWLLAQSPSSGAPPPS-NH2 [Compound No. 93] | 29.5 | 0.0006 |
| YXEGTFISDYSIXXDRXAQXDFVEWLLAQRG (N-methyl Tyr 1; Aib at 2,13,17,20; Lys(G5-C18 diacid) at 14; C-terminal OH) [Compound No. 108] | 41.7 | 0.0002 |
| YXEGTFISDYSIALDRXAQXDFVEWLLAQRG (N-methyl Tyr 1; Aib at 2,20; Lys(G5-C18 diacid) at 17; C-terminal OH) [Compound No. 115] | 40.7 | 0.0003 |
| [NMeY][Aib]EGTFISDYSI[Aib]LDR[Aib]AQ[Aib]K([AEEA-AEEA-γGlu-γGlu-C17 diacid])FVNWLLAQSPSSGAPPPS-NH2 [Compound No. 94] | 63.1 | 0.0006 |
| [NMeY][Aib]EGTFISDYSI[Aib]LDR[Aib]AQ[Aib]K([AEEA-AEEA-γGlu-γGlu-C20 diacid])FVNWLLAQRPSSGAPPPS-NH2 [Compound No. 101] | 39.8 | 0.0009 |
| [NMeY][Aib]EGTFISDYSI[Aib]LDR[Aib]AQ[Aib]K([AEEA-γGlu-AEEA-γGlu-C18 diacid])FVNWLLAQSPSSGAPPPS-NH2 [Compound No. 92] | 36.3 | 0.0006 |
| [NMeY][Aib]EGTFISDYSIALDR[Aib]AQ[Aib]K([AEEA-AEEA-γGlu-γGlu-C18 diacid])FVNWLLAQSPSSGAPPPS-NH2 [Compound No. 97] | 52.5 | 0.0006 |
| [NMeY][Aib]EGTFISDYSIALDR[Aib]AQ[Aib]K([GGPAPAP-γGlu-C18 diacid])FVNWLLAQSPSSGAPPPS-OH [Compound No. 104] | 66.1 | 0.0005 |
| [NMeY][Aib]EGTFISDYSIALDR[Aib]AQ[Aib]K([GGPAPAP-C18 diacid])FVNWLLAQSPSSGAPPPS-OH [Compound No. 103] | 29.5 | 0.0017 |
| [NMeY][Aib]EGTFISDYSIALDR[Aib]K([GGPAPAP-C18 diacid])Q[Aib]DFVNWLLAQSPSSGAPPPS-OH [Compound No. 102] | 117 | 0.0005 |
| [NMeY][Aib]EGTFISDYSI[Aib]LDR[Aib]AA[Aib]K([AEEA-AEEA-γGlu-γGlu-C18 diacid])FVNWLLAQRPSSGAPPPS-NH2 [Compound No. 106] | 12 | 0.0004 |
| [NMeY][Aib]EGTFISDYSI[Aib]LDR[Aib]AQ[Aib]K([AEEA-AEEA-γGlu-γGlu-C18 diacid])FVEWLLAQKG-OH (N-terminus assumed; SMILES CC[C@H](C)[C@H](NC(=O)[C@H](Cc1ccccc1)NC(=O)[C@@H](NC(=O)CNC(=O)[C@H](CCC(=O)O)NC(=O)C(C)(C)NC(=O)[C@H](Cc1ccc(O)cc1)NC)[C@@H](C)O)C(=O)N[C@@H](CO)C(=O)N[C@@H](CC(=O)O)C(=O)N[C@@H](Cc1ccc(O)cc1)C(=O)N[C@@H](CO)C(=O)N[C@H](C(=O)NC(C)(C)C(=O)N[C@@H](CC(C)C)C(=O)N[C@@H](CC(=O)O)C(=O)N[C@@H](CCCNC(=N)N)C(=O)NC(C)(C)C(=O)N[C@@H](C)C(=O)N[C@@H](CCC(N)=O)C(=O)NC(C)(C)C(=O)N[C@@H](CCCCNC(=O)COCCOCCNC(=O)COCCOCCNC(=O)CC[C@H](NC(=O)CC[C@H](NC(=O)CCCCCCCCCCCCCCCCC(=O)O)C(=O)O)C(=O)O)C(=O)N[C@@H](Cc1ccccc1)C(=O)N[C@H](C(=O)N[C@@H](CCC(=O)O)C(=O)N[C@@H](Cc1c[nH]c2ccccc12)C(=O)N[C@@H](CC(C)C)C(=O)N[C@@H](CC(C)C)C(=O)N[C@@H](C)C(=O)N[C@@H](CCC(N)=O)C(=O)N[C@@H](CCCCN)C(=O)NCC(=O)O)C(C)C)[C@@H](C)CC) [Compound No. 110] | 100 | 0.0003 |
| [NMeY][Aib]EGTFISDYSI[Aib]LDR[Aib]K([AEEA-AEEA-γGlu-γGlu-C18 diacid])Q[Aib]NFVNWLLAQSPSSGAPPPS-NH2 [Compound No. 100] | > 1000 | 0.0006 |
| [NMeY][Aib]EGTFISDYSIALDR[Aib]AQ[Aib]K([2OEGgEgE-C17 diacid])FVNWLLAQR-OH [Compound No. 9] | 7.94 | 0.0004 |
| YXEGTFISDYSIXXDRXAQXNFVNWLLAQSPSSGAPPPS (N-methyl Tyr 1; Aib at 2,13,17,20; Lys(G5-C17 diacid) at 14; C-terminal OH) [Compound No. 95] | 17.4 | 0.0004 |
| YXEGTFISDYSIXXDRXAQXNFVNWLLAQSPSSGAPPPS (N-methyl Tyr 1; Aib at 2,13,17,20; Lys(G5-C18 diacid) at 14; C-terminal OH) [Compound No. 96] | 9.55 | 0.0003 |
| [NMeY][Aib]EGTFISDYSI[Aib]LDR[Aib]K([AEEA-AEEA-γGlu-γGlu-C18 diacid])A[Aib]NFVNWLLAQSPSSGAPPPS-NH2 [Compound No. 109] | 204 | 0.0004 |
